Assay results taken from patent publication US6767716B2, “Chemluminescent systems containing unsaturated 1,2-dioxetanes” (priority 2000, dated 2004).

Assay: Stability of diluted alkaline phosphatase in the enzyme diluent
Assay type: physicochemical
Details: ≅100 molecules of alkaline phosphatase per ml of diluent, stored at 4° C.
Text: As is known to those skilled in the art, the stability of the enzyme is the most important factor in the detection of biological molecules. The present invention utilizes a unique diluent or buffer based upon the composition of human blood serum. The present diluent is a tris-buffer containing proteins, metal halides such as sodium chloride, potassium chloride, magnesium chloride, zinc chloride, and the like, alcohols or polyhydric alcohols and sodium azide. The pH of the buffer is between 7.5 to 8.5.

For alkaline phosphatase, the “stability of enzyme in diluent” value was “stable at least for one week”.
